Test results reported in patent US20180049457A1, “ENZYMATIC SYNTHESIS OF SOLUBLE GLUCAN FIBER” (E I DU PONT DE NEMOURS AND COMPANY, priority 2014, published 2018).

B1: GTF0974T1: T1 C-terminal truncation of GTF0974, SEQ ID NO: 136, strain SG1304 (protein)
chain: INGKQYYVNSDGSVRKNFVFEQDGKSYYFDAETGALATKSQDEFSTEPIKATVDFSSGNQLYKNDDKSLDQLDTFITADAWYRPKSILKDGKTWTASTEADKRPLLMVWWPDKSTQVNYLNYMQNQGLGAGSFSTNSSQESLDQAAKAVQTKIEERIAREGNTNWLRTSIDQFIKTQPGWNSSTENSSYDHLQGGQLLFNNSKGDTGNRTSHANSDYRLLNRTPTNQTGTRKYFKDNSIGGLEFLLANDIDNSNPAVQAEQLNWLHFMMNIGSIMANDPTANFDGLRVDALDNVDADLLQIASDYFKAAYGVDKSEANAIKHLSYLEAWSANDPYYNKDTKGAQLPIDNALRNALTNLLMRDKNTRMQLGDMTAFINSSLNPRGANDKNGERMANYIFTRAHDTEAQTIIQRIIRDRINPNLFGYNFTRDEIKKAFEIYNEDIDKAHKTYASYNLPSVYALMLTNKDSVTRVYYGDLYREDGHYMAKKTPYFDAIDTLLRARIKYVAGGQDMEVKKVGNDGLLTSVRYGKGANNRTDLGTSETRTQGMGVIMTNNYDFRLGSNETVTMNMGRAHRNQLYRPLLLTTKDGIATYLNDSDVPKKLLKRTDWNGNLTFNANDVFGVENVQVSGYLGVWVPYGAKANQDARTQPSNRANSDGQVYKSSAALDSQVMYEAFSNFQAFADDQPELYMNRVLAKNTDLLKAWGITSVGLPPQYVSSKDGTFLDSTIDNGYAFDDRYDMALSQNNKYGSLEDLLNVLRALHKDGIQAIADWVPDQIYNLPGKEVVNATRVNGYGNHQVGYQIIDQAYVANTRTDGTDYQGKYGGAFLDELKAKYPSIFNRVQISNGKQLPTNEKITKWSAKYFNGTNILGRGINYVLRDDKTNQYFNTSANSQLLPTPLRDTGAIT
modifications: T1 C-terminal truncation of GTF0974
B2: GTF0974T2: T2 C-terminal truncation of GTF0974, SEQ ID NO: 138, strain SG1305 (protein)
chain: INGKQYYVNSDGSVRKNFVFEQDGKSYYFDAETGALATKSQDEFSTEPIKATVDFSSGNQLYKNDDKSLDQLDTFITADAWYRPKSILKDGKTWTASTEADKRPLLMVWWPDKSTQVNYLNYMQNQGLGAGSFSTNSSQESLDQAAKAVQTKIEERIAREGNTNWLRTSIDQFIKTQPGWNSSTENSSYDHLQGGQLLFNNSKGDTGNRTSHANSDYRLLNRTPTNQTGTRKYFKDNSIGGLEFLLANDIDNSNPAVQAEQLNWLHFMMNIGSIMANDPTANFDGLRVDALDNVDADLLQIASDYFKAAYGVDKSEANAIKHLSYLEAWSANDPYYNKDTKGAQLPIDNALRNALTNLLMRDKNTRMQLGDMTAFINSSLNPRGANDKNGERMANYIFTRAHDTEAQTIIQRIIRDRINPNLFGYNFTRDEIKKAFEIYNEDIDKAHKTYASYNLPSVYALMLTNKDSVTRVYYGDLYREDGHYMAKKTPYFDAIDTLLRARIKYVAGGQDMEVKKVGNDGLLTSVRYGKGANNRTDLGTSETRTQGMGVIMTNNYDFRLGSNETVTMNMGRAHRNQLYRPLLLTTKDGIATYLNDSDVPKKLLKRTDWNGNLTFNANDVFGVENVQVSGYLGVWVPYGAKANQDARTQPSNRANSDGQVYKSSAALDSQVMYEAFSNFQAFADDQPELYMNRVLAKNTDLLKAWGITSVGLPPQYVSSKDGTFLDSTIDNGYAFDDRYDMALSQNNKYGSLEDLLNVLRALHKDGIQAIADWVPDQIYNLPGKEVVNATRVNGYGNHQVGYQIIDQAYVANTRTDGTDYQGKYGGAFLDELKAKYPSIFNRVQISNGKQLPTNEKITKWSAKYFNGTNILGRGINYVLRDDKTNQYFNTSANSQLLPTPLRDTGAITSTQVFQRRGQDVYFLRDNQAVKNEFVQDGNGNWYYFGGDG
modifications: T2 C-terminal truncation of GTF0974
B3: GTF0974T6: T6 C-terminal truncation of GTF0974, SEQ ID NO: 140, strain SG1306 (protein)
chain: INGKQYYVNSDGSVRKNFVFEQDGKSYYFDAETGALATKSQDEFSTEPIKATVDFSSGNQLYKNDDKSLDQLDTFITADAWYRPKSILKDGKTWTASTEADKRPLLMVWWPDKSTQVNYLNYMQNQGLGAGSFSTNSSQESLDQAAKAVQTKIEERIAREGNTNWLRTSIDQFIKTQPGWNSSTENSSYDHLQGGQLLFNNSKGDTGNRTSHANSDYRLLNRTPTNQTGTRKYFKDNSIGGLEFLLANDIDNSNPAVQAEQLNWLHFMMNIGSIMANDPTANFDGLRVDALDNVDADLLQIASDYFKAAYGVDKSEANAIKHLSYLEAWSANDPYYNKDTKGAQLPIDNALRNALTNLLMRDKNTRMQLGDMTAFINSSLNPRGANDKNGERMANYIFTRAHDTEAQTIIQRIIRDRINPNLFGYNFTRDEIKKAFEIYNEDIDKAHKTYASYNLPSVYALMLTNKDSVTRVYYGDLYREDGHYMAKKTPYFDAIDTLLRARIKYVAGGQDMEVKKVGNDGLLTSVRYGKGANNRTDLGTSETRTQGMGVIMTNNYDFRLGSNETVTMNMGRAHRNQLYRPLLLTTKDGIATYLNDSDVPKKLLKRTDWNGNLTFNANDVFGVENVQVSGYLGVWVPYGAKANQDARTQPSNRANSDGQVYKSSAALDSQVMYEAFSNFQAFADDQPELYMNRVLAKNTDLLKAWGITSVGLPPQYVSSKDGTFLDSTIDNGYAFDDRYDMALSQNNKYGSLEDLLNVLRALHKDGIQAIADWVPDQIYNLPGKEVVNATRVNGYGNHQVGYQIIDQAYVANTRTDGTDYQGKYGGAFLDELKAKYPSIFNRVQISNGKQLPTNEKITKWSAKYFNGTNILGRGINYVLRDDKTNQYFNTSANSQLLPTPLRDTGAITSTQVFQRRGQDVYFLRDNQAVKNEFVQDGNGNWYYFGGDGKMTKGAQNINNKDYYFFDNGIQLRNALRRASNGYTYYYGLDGAMVKNAFVDFDDKHKQVRAFTTQG
modifications: T6 C-terminal truncation of GTF0974
B4: GTF4336T1: T1 C-terminal truncation of GTF4336, SEQ ID NO: 142, strain SG1307 (protein)
chain: INGKQYYVNSDGSVRKNFVFEQDGKSYYFDAETGALATKSQDEFSTEPIKATVDFSSGNQLYKNDDKSLDQLDTFITADAWYRPKSILKDGKTWTASTEADKRPLLMVWWPDKSTQVNYLNYMQNQGLGAGSFSTNSSQESLDQAAKAVQTKIEERIAREGNTNWLRTSIDQFIKTQPGWNSSTENSSYDHLQGGQLLFNNSKGDTGNRTSHANSDYRLLNRTPTNQTGTRKYFKDNSIGGLEFLLANDIDNSNPAVQAEQLNWLHFMMNIGSIMANDPTANFDGLRVDALDNVDADLLQIASDYFKAAYGVDKSEANAIKHLSYLEAWSANDPYYNKDTKGAQLPIDNALRNALTNLLMRDKNTRMQLGDMTAFINSSLNPRGANDKNGERMANYIFTRAHDTEAQTIIQRIIRDRINPNLFGYNFTRDEIKKAFEIYNEDIDKAHKTYASYNLPSVYALMLTNKDSVTRVYYGDLYREDGHYMAKKTPYFDAIDTLLRARIKYVAGGQDMEVKKVGNDGLLTSVRYGKGANNRTDLGTSETRTQGMGVIMTNNYDFRLGSNETVTMNMGRAHRNQLYRPLLLTTKDGIATYFNDSDVPKNLLKRTDWNGNLTFNANDVFGVENVQVSGYLGVWVPVGAKANQDARTQPSNRANSDGQVYKSSAALDSQVMYEAFSNFQAFADDQPELYMNRVLAKNTDLLKAWGVTSVGLPPQYVSSKDGTFLDSTIDNGYAFDDRYDMALSQNNKYGSLEDLLNVLRALHKDGIQAIADWVPDQIYNLPGKEVVNATRVNGYGYHQQGYQIVDQAYVANTRTDGTDYQGKYGGAFLDELKAKYPSIFNRVQISNGKQLPTNEKITKWSAKYFNGTNILGRGINYVLRDDKTNQYFNTSANSQLLPTPLRDTGAIT
modifications: T1 C-terminal truncation of GTF4336
B5: GTF4336T2: T2 C-terminal truncation of GTF4336, SEQ ID NO: 144, strain SG1308 (protein)
chain: INGKQYYVNSDGSVRKNFVFEQDGKSYYFDAETGALATKSQDEFSTEPIKATVDFSSGNQLYKNDDKSLDQLDTFITADAWYRPKSILKDGKTWTASTEADKRPLLMVWWPDKSTQVNYLNYMQNQGLGAGSFSTNSSQESLDQAAKAVQTKIEERIAREGNTNWLRTSIDQFIKTQPGWNSSTENSSYDHLQGGQLLFNNSKGDTGNRTSHANSDYRLLNRTPTNQTGTRKYFKDNSIGGLEFLLANDIDNSNPAVQAEQLNWLHFMMNIGSIMANDPTANFDGLRVDALDNVDADLLQIASDYFKAAYGVDKSEANAIKHLSYLEAWSANDPYYNKDTKGAQLPIDNALRNALTNLLMRDKNTRMQLGDMTAFINSSLNPRGANDKNGERMANYIFTRAHDTEAQTIIQRIIRDRINPNLFGYNFTRDEIKKAFEIYNEDIDKAHKTYASYNLPSVYALMLTNKDSVTRVYYGDLYREDGHYMAKKTPYFDAIDTLLRARIKYVAGGQDMEVKKVGNDGLLTSVRYGKGANNRTDLGTSETRTQGMGVIMTNNYDFRLGSNETVTMNMGRAHRNQLYRPLLLTTKDGIATYFNDSDVPKNLLKRTDWNGNLTFNANDVFGVENVQVSGYLGVWVPVGAKANQDARTQPSNRANSDGQVYKSSAALDSQVMYEAFSNFQAFADDQPELYMNRVLAKNTDLLKAWGVTSVGLPPQYVSSKDGTFLDSTIDNGYAFDDRYDMALSQNNKYGSLEDLLNVLRALHKDGIQAIADWVPDQIYNLPGKEVVNATRVNGYGYHQQGYQIVDQAYVANTRTDGTDYQGKYGGAFLDELKAKYPSIFNRVQISNGKQLPTNEKITKWSAKYFNGTNILGRGINYVLRDDKTNQYFNTSANSQLLPTPLRDTGAITSTQVFQRRGQDVYFLRDNQAVKNEFVQDGNGNWYYFGADG
modifications: T2 C-terminal truncation of GTF4336

test: GTF activity of strains (PAHBAH assay); format: biochemical; settings: Experiment Number 1; enzyme expressed in B. subtilis host
Method in brief: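 Glucosyltransferase (GTF) activity of the bacterial strains was measured with the PAHBAH assay. The enzymes tested were truncated GTF variants produced in a Bacillus subtilis expression host. Measurements were split across three separate experiments, and each activity value is reported together with the experiment it came from because results varied slightly between experiments.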

Question: For B1, which “GTF activity of strains: Acitivity” value is on record?
Answer: 18.4 U/mL

Question: Which “GTF activity of strains: Acitivity” value does the source give for B2 here?
Answer: 7.2 U/mL

Question: With B3 as the molecule, how does the “GTF activity of strains: Acitivity” value read?
Answer: 33.7 U/mL

Question: For B4, which “GTF activity of strains: Acitivity” value is on record?
Answer: 9.4 U/mL

Question: Which “GTF activity of strains: Acitivity” value does the source give for B5 here?
Answer: 11.5 U/mL
